Test results from patent publication US20190314417A1, “IMMUNOSUPPRESSIVE MESENCHYMAL CELLS AND METHODS FOR FORMING SAME” (The Trustees of Columbia University In The City of New York, priority 2016, published 2019).
Structures can show the parent of a compound that is named as a salt.

Key:
Type in all cases: cell-based, human
[1] = system: GLUT1; experiment: Hypoxia mimetic titration: GLUT1 in MSCs; conditions: different concentrations, FIG. 24
Experimental: Studies were carried out to determine the effect of hypoxia mimicking agents CoCl2 and DFO on MSCs (FIG. 24).

[2] = system: T-cells; experiment: Lactic acid titration: intracellular pH and scatter of T-cells (pHrodo Red AM); conditions: fresh complete AIM-V media, 30 minutes
[3] = system: CD4+ and CD8+ T-cell division; experiment: Lactic acid titration: T-cell division in response to Concanavalin A; conditions: ConA 5 μg/mL, Day 3
Experimental: PBMCs were thawed, as previously described, and stained in HEPES buffered saline at 37° C. for 30 minutes with pHrodo® Red AM (Thermo Fisher) as per manufacturer's instructions (1000× dilution of dye). […] Cells were resuspended in these new media and incubated at 37° C. for 30 minutes. Immediately prior to each flow cytometry reading, each sample was diluted 1:9 with BD Stain Buffer and mixed well. This neutralized external pH and diluted media components without permitting time for intracellular lactate to be exported. […] Cells were plated in 96-well U-bottom plates at 200 000 cells per well. ConA was added to be 5 μg/mL, and PBMCs were analyzed by flow cytometry on Day 3.

[4] = system: IDO; experiment: Onset kinetics of IDO expression in MSCs exposed to IFN-γ; conditions: 10 ng/mL IFN-γ
Experimental: (§1) Titration studies were carried out to determine whether IFN-γ at different concentrations or for different time periods had differential effects on MSC expression of IDO and/or PD-L1 (FIGS. 22 & 23). […] Thus, the IFN-γ dose could be used in a range of 0.1 ng/mL to 100 ng/mL for future animal and human studies, while still reproducing the same beneficial phenotype, with the lower end of that range more likely to mimic physiologic conditions in humans. […] Therefore, priming of MSCs may be carried out for less than 48 hours to achieve biological effects.

[5] = system: PD-L1; experiment: Onset kinetics of PD-L1 expression in MSCs exposed to IFN-γ; conditions: 10 ng/mL IFN-γ
Experimental: as §1

[6] = system: IDO; experiment: IFN-γ titration: IDO expression in MSCs by flow cytometry; conditions: 48 hours of exposure
Experimental: as §1

How did the “GLUT1 upregulation in MSCs” value [1] turn out when `[Cl][Co][Cl]` [CoCl2, cobalt chloride] was run?
Its value is “able to upregulate GLUT 1”.

How did the “GLUT1 upregulation in MSCs” value [1] turn out when `CC(=O)N(O)CCCCCNC(=O)CCC(=O)N(O)CCCCCNC(=O)CCC(=O)N(O)CCCCCN` [DFO, deferoxamine mesylate/desferrioxamine] was run?
Its value is “able to upregulate GLUT 1”.

With `C[C@H](O)C(=O)O` [lactic acid, L-lactic acid] as the molecule, how does the “extracellular lactic acid level at which drop in T-cell pHi started to become pronounced” value [2] read?
The value was 15 mM.

And the “T-cell division at lactate 15 mM” value ([3]; lactate concentration of 15 mM)?
Its value is “almost completely eliminated”.

And the “T-cell division, % of the maximum rate” value ([3]; lactic acid concentration not given)?
Its value is 30-45%.

B1: IFN-γ: pro-inflammatory cytokine (Peprotech) used to prime MSCs (protein, UniProt P01579 24-161, looked up)
Interferon gamma: QDPYVKEAENLKKYFNAGHSDVADNGTLFLGILKNWKEESDRKIMQSQIVSFYFKLFKNFKDDQSIQKSVETIKEDMNVKFFNSNKKKRDDFEKLTNYSVTDLNVQRKAIHELIQVMAELSPAAKTGKRKRSQMLFRG
With B1 as the molecule, how does the “exposure time after which IDO is already upregulated” value [4] read?
The value was 6 h.

And the “exposure time required for maximum IDO expression” value [4]?
Its value is 48 h.

What about the “exposure time after which PD-L1 is already upregulated” value [5] of the same molecule?
Its value is 6 h.

What about the “exposure time required for maximum PD-L1 expression” value [5] of the same molecule?
The value was 48 h.

And the “IDO induction at 0.1 ng/mL” value ([6]; 0.1 ng/mL)?
Its value is “significant induction”.

And the “IFN-γ concentration required for maximum IDO induction” value [6]?
The value was “at least 1 ng/mL”.
